In patent publication US20220073646A1 (Hoffmann-La Roche, published 2022):

Experiments:
[1] = molecular target: T1, cynomolgus 4-1BB on activated cynomolgus PBMC (cynomolgus, UniProt Q07011 24-255 (human entry)); assay: flow cytometry, activated cynomolgus CD8 T cells
T1 chain: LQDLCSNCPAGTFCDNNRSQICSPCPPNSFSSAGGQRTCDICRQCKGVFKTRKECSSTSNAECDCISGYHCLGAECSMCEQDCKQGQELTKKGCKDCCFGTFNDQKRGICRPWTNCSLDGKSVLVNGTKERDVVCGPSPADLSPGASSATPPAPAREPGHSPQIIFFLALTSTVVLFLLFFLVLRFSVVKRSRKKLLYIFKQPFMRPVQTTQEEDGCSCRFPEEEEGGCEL
Method: (§1) Cells were washed twice with FACS buffer and resuspended in 100 μL/well FACS buffer supplied with 0.2 μg/mL DAPI to discriminated dead from living cells. Cells were immediately acquired using a 5-laser Fortessa (BD Bioscience with DIVA software). Gates were set on CD8⁺ and CD4⁺ T cells and the median fluorescence intensity (MFI) of the secondary detection antibody was used to analyze binding of primary antibodies. Using Graph Pad Prism (Graph Pad Software Inc.) data was baselined by subtracting the blank values (no primary antibody added) and the EC₅₀ values were calculated using non-linear regression curve fit (robust fit).

[2] = molecular target: mouse 4-1BB on activated mouse splenocytes (mouse, UniProt P20334 24-256); assay: flow cytometry, activated mouse T cells
Chain of mouse 4-1BB on activated mouse splenocytes (P20334 24-256 limits assumed): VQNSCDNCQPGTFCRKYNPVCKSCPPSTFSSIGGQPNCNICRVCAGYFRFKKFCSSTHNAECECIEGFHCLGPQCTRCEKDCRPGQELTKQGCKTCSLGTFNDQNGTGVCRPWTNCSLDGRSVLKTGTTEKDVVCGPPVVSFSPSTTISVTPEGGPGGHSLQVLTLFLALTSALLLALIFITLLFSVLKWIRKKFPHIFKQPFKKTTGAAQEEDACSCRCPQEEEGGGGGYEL
Method: Cells were incubated for 30 min at 4° C., washed twice with 200 μL/well FACS-buffer and resuspended for fixation with 50 μL/well DPBS containing 1% (v/v) formaldehyde. The next day cells were resuspended in 200 μL/well FACS buffer and acquired using the 2-laser Cantoll (BD Bioscience with DIVA software) or 5-laser Fortessa (BD Bioscience with DIVA software). Gates were set on CD8⁺ and CD4⁺ T cells and the median fluorescence intensity (MFI) of the secondary detection antibody was used to analyze binding of primary antibodies. Using Graph Pad Prism (Graph Pad Software Inc.) data was baselined by subtracting the blank values (no primary antibody added) and the EC₅₀ values were calculated using non-linear regression curve fit (robust fit).

[3] = molecular target: T1, cynomolgus 4-1BB on activated …; assay: flow cytometry, activated cynomolgus CD4 T cells
Method: as §1

human 4-1BB on cells [4] = molecular target: T2, human 4-1BB on cells (human, UniProt Q07011 24-255); assay: cell-based or functional assay
human 4-1BB on cells [5] = molecular target: T2, human 4-1BB on cells; assay: flow cytometry, activated human CD8 T cells
Method: Plates were centrifuged 4 minutes with 400×g at 4° C. and supernatant was discarded. […] Afterwards cells were washed once with 200 μL/well cold FACS buffer (DPBS supplied with 2% (v/v) FBS, 5 mM EDTA pH8 (Amresco, Cat. No. E177) and 7.5 mM sodium azide (Sigma-Aldrich S2002)). […] Cells were washed four times with 200 μL/well 4° C.
Cells were washed twice with 200 μL FACS buffer/well and fixated by resuspending in 50 μL/well DPBS containing 1% Formaldehyde (Sigma, HT501320-9.5L). Cells were acquired the same or next day using a 3-laser Canto II (BD Bioscience with DIVA software) or a 5-laser Fortessa (BD Bioscience with DIVA software) or 3-laser MACSQuant Analyzer 10 (Miltenyi Biotech). Gates were set on CD8⁺ and CD4⁺ T cells and the median fluorescence intensity (MFI) or geo mean of fluorescence intensity of the secondary detection antibody was used to analyze binding of primary antibodies. Using Graph Pad Prism (Graph Pad Software Inc.) data was baselined by subtracting the blank values (no primary antibody added) and the EC50 values were calculated using non-linear regression curve fit (robust fit).

[6] = molecular target: recombinant cynomolgus 4-1BB Fc(kih) (cynomolgus, UniProt P0DOX5 223-449 = IgG part, biotin on C-terminal Avi tag where used biotinylated); assay: SPR, captured IgG, cyno 4-1BB Fc(kih) analyte
Method: (§2) All SPR experiments were performed on a Biacore T200 at 25° C. with HBS-EP as running buffer (0.01 M HEPES pH 7.4, 0.15 M NaCl, 3 mM EDTA, 0.005% Surfactant P20, Biacore, Freiburg/Germany).
Anti-human Fab antibody (Biacore, Freiburg/Germany) was directly coupled on a CM5 chip at pH 5.0 using the standard amine coupling kit (Biacore, Freiburg/Germany). The immobilization level was approximately 9000 RU.

[7] = molecular target: T3, recombinant human 4-1BB Fc(kih) (human, UniProt P0DOX5 223-449 = IgG part, biotin on C-terminal Avi tag where used biotinylated); assay: SPR, captured IgG, 4-1BB Fc(kih) analyte
T3 construct: also called hu4-1BB; biotinylated human 4-1BB
Method: as §2
Anti-human Fab antibody (Biacore, Freiburg/Germany) was directly coupled on a CM5 chip at pH 5.0 using the standard amine coupling kit (Biacore, Freiburg/Germany). The immobilization level was approximately 7500 RU. […] The dissociation was monitored for 120 seconds. Bulk refractive index differences were corrected for by subtracting the response obtained on reference flow cell.

human 4-1BB on cells [8] = molecular target: T2, human 4-1BB on cells; assay: cell-based or functional assay; remark: listed apart in the source
human OX40 on cells = molecular target: T4, human OX40 on cells (human, UniProt P43489 29-277); assay: flow cytometry, activated human CD4 T cells
T4 sequence: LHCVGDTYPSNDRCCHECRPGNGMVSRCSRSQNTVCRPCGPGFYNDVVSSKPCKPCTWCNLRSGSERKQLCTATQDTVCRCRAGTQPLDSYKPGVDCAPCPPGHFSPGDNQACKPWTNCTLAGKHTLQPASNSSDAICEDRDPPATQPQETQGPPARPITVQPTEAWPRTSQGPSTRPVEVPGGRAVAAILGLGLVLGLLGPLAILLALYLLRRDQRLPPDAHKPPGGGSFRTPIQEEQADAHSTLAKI

[9] = molecular target: T5, human fibroblast activation protein (huFAP) on cells (human, UniProt Q12884 1-760); assay: flow cytometry, WM266-4
T5 construct: also called NIH/3T3-huFAP clone 39; NIH/3T3-huFAP clone 19

[10] = molecular target: T6, human GITR on HEK cells (HEK-GITR) (human, UniProt Q9Y5U5 26-241); assay: flow cytometry, HEK-GITR
T6 construct: also called cell surface expressed human GITR
T6 sequence: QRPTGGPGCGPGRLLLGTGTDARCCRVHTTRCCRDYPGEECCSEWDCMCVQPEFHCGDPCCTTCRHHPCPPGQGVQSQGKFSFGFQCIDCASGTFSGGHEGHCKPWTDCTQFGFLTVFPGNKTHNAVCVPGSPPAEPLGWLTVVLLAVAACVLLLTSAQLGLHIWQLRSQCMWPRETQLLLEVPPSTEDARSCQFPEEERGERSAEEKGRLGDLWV
Method: Cells were washed twice with complete media and once with PBS+2% FBS before adjusting cell density to 1×10⁷ cells/mL in PBS+2% FBS.
Plates were centrifuged at 4° C., 3 minutes at 600×g and supernatant was flicked off. Cells were resuspended in 50 μL/well of 4° C. cold PBS+2% FBS containing titrated anti-GITR antibody constructs for 120 minutes at 4° C. Plates were washed twice with 200 μL/well 4° C. PBS+2% FBS to remove unbound construct. […] Plates were centrifuged at 4° C. for 3 minutes at 600×g and washed twice with PBS+2% FBS. […] Plates were centrifuged at 4° C., 3 minutes at 600×g and supernatant was flicked off.

B1: 25G7 P329GLALA IgG1 (antibody, V domains shown)
VH: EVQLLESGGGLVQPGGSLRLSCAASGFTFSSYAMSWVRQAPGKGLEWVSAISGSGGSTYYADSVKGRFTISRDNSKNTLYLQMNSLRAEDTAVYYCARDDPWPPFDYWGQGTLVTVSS
VL: SSELTQDPAVSVALGQTVRITCQGDSLRSYYASWYQQKPGQAPVLVIYGKNNRPSGIPDRFSGSSSGNTASLTITGAQAEDEADYYCNSLDRRGMWVFGGGTKLTVLG
notes: anti-4-1BB; also called 25G7 IgG
EC50 [1]: 4.52 nM | binding result [2]: no binding | EC50 [3]: 6.68 nM | EC50 of increase of IFNγ secretion in activated CD8+ T cells (surface-immobilized IgG) (human 4-1BB on cells [4]): 0.12 nM | EC50 (human 4-1BB on cells [5]): 29 nM | Kd [6]: 17 nM | koff [6]: 0.00046 s⁻¹ | kon [6]: 27000 M⁻¹ s⁻¹ | Kd [7]: 34 nM | koff [7]: 0.00099 s⁻¹ | kon [7]: 29000 M⁻¹ s⁻¹

B2: 11D5 P329GLALA IgG1 (antibody, V domains shown)
VH: QVQLVQSGAEVKKPGSSVKVSCKASGGTFSSYAISWVRQAPGQGLEWMGGIIPIFGTANYAQKFQGRVTITADKSTSTAYMELSSLRSEDTAVYYCARSTLIYGYFDYWGQGTTVTVSS
VL: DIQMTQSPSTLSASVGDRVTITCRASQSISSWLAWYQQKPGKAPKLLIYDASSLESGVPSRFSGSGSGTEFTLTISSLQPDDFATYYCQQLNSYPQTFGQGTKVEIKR
notes: anti-4-1BB; also called 11D5 IgG
EC50 [1]: 1.04 nM | binding result [2]: no binding | EC50 [3]: 0.97 nM | EC50 of increase of IFNγ secretion in activated CD8+ T cells (surface-immobilized IgG) (human 4-1BB on cells [4]): 0.06 nM | EC50 (human 4-1BB on cells [5]): 1.46 nM | Kd [6]: 24 nM | koff [6]: 0.00077 s⁻¹ | kon [6]: 31000 M⁻¹ s⁻¹ | Kd [7]: 36 nM | koff [7]: 0.0012 s⁻¹ | kon [7]: 32000 M⁻¹ s⁻¹

B3: 25G7/FAP P329GLALA IgG1 1+1 (bispecific antibody)
heavy 1: not shown
light 1: SSELTQDPAVSVALGQTVRITCQGDSLRSYYASWYQQKPGQAPVLVIYGKNNRPSGIPDRFSGSSSGNTASLTITGAQAEDEADYYCNSLDRRGMWVFGGGTKLTVLGQPKAAPSVTLFPPSSEELQANKATLVCLISDFYPGAVTVAWKADSSPVKAGVETTTPSKQSNNKYAASSYLSLTPEQWKSHRSYSCQVTHEGSTVEKTVAPTECS
heavy 2: EVQLLESGGGLVQPGGSLRLSCAASGFTFSSHAMSWVRQAPGKGLEWVSAIWASGEQYYADSVKGRFTISRDNSKNTLYLQMNSLRAEDTAVYYCAKGWLGNFDYWGQGTLVTVSSASVAAPSVFIFPPSDEQLKSGTASVVCLLNNFYPREAKVQWKVDNALQSGNSQESVTEQDSKDSTYSLSSTLTLSKADYEKHKVYACEVTHQGLSSPVTKSFNRGECDKTHTCPPCPAPEAAGGPSVFLFPPKPKDTLMISRTPEVTCVVVDVSHEDPEVKFNWYVDGVEVHNAKTKPREEQYNSTYRVVSVLTVLHQDWLNGKEYKCKVSNKALGAPIEKTISKAKGQPREPQVCTLPPSRDELTKNQVSLSCAVKGFYPSDIAVEWESNGQPENNYKTTPPVLDSDGSFFLVSKLTVDKSRWQQGNVFSCSVMHEALHNHYTQKSLSLSPGK
light 2: EIVLTQSPGTLSLSPGERATLSCRASQSVSRSYLAWYQQKPGQAPRLLIIGASTRATGIPDRFSGSGSGTDFTLTISRLEPEDFAVYYCQQGQVIPPTFGQGTKVEIKSSASTKGPSVFPLAPSSKSTSGGTAALGCLVKDYFPEPVTVSWNSGALTSGVHTFPAVLQSSGLYSLSSVVTVPSSSLGTQTYICNVNHKPSNTKVDKKVEPKSCD
EC50 of NFκB/luciferase activation, 4-1BB reporter HeLa with NIH/3T3-huFAP clone 19 (human 4-1BB on cells [8]): 3.2 nM

B4: 25G7/FAP P329GLALA IgG1 2+2 (bispecific antibody)
heavy: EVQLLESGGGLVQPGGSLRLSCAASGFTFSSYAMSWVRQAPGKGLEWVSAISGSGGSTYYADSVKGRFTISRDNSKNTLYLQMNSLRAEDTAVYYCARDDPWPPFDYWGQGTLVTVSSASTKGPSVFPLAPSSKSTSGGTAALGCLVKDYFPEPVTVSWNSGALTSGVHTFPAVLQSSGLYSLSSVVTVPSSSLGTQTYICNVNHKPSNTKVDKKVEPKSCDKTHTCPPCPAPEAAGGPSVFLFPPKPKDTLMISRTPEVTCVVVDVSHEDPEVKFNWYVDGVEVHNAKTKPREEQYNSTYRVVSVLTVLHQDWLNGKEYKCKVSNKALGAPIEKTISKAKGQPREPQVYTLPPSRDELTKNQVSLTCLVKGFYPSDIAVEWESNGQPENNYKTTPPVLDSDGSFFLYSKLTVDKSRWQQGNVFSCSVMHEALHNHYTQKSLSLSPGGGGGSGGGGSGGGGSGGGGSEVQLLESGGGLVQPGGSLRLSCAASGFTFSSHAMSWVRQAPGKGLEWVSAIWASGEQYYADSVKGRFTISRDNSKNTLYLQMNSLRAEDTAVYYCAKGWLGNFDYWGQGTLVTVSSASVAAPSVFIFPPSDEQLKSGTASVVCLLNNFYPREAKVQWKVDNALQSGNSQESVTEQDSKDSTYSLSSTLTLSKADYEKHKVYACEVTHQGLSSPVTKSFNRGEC
light 1: SSELTQDPAVSVALGQTVRITCQGDSLRSYYASWYQQKPGQAPVLVIYGKNNRPSGIPDRFSGSSSGNTASLTITGAQAEDEADYYCNSLDRRGMWVFGGGTKLTVLGQPKAAPSVTLFPPSSEELQANKATLVCLISDFYPGAVTVAWKADSSPVKAGVETTTPSKQSNNKYAASSYLSLTPEQWKSHRSYSCQVTHEGSTVEKTVAPTECS
light 2: EIVLTQSPGTLSLSPGERATLSCRASQSVSRSYLAWYQQKPGQAPRLLIIGASTRATGIPDRFSGSGSGTDFTLTISRLEPEDFAVYYCQQGQVIPPTFGQGTKVEIKSSASTKGPSVFPLAPSSKSTSGGTAALGCLVKDYFPEPVTVSWNSGALTSGVHTFPAVLQSSGLYSLSSVVTVPSSSLGTQTYICNVNHKPSNTKVDKKVEPKSCD
EC50 of NFκB/luciferase activation, 4-1BB reporter HeLa with NIH/3T3-huFAP clone 19 (human 4-1BB on cells [8]): 0.05 nM

B5: 4-1BB(25G7)/FAP(4B9) 2+1 (bispecific antibody, human IgG1, lambda, L234A L235A)
heavy 1: not shown
heavy 2: not shown
light: SSELTQDPAVSVALGQTVRITCQGDSLRSYYASWYQQKPGQAPVLVIYGKNNRPSGIPDRFSGSSSGNTASLTITGAQAEDEADYYCNSLDRRGMWVFGGGTKLTVLGQPKAAPSVTLFPPSSEELQANKATLVCLISDFYPGAVTVAWKADSSPVKAGVETTTPSKQSNNKYAASSYLSLTPEQWKSHRSYSCQVTHEGSTVEKTVAPTECS
EC50 of NFκB/luciferase activation, 4-1BB reporter HeLa with NIH/3T3-huFAP clone 19 (human 4-1BB on cells [8]): 0.1 nM | EC50 of NFκB/luciferase activation, 4-1BB reporter HeLa with WM-266-4 (human 4-1BB on cells [8]): 0.3 nM

B6: 4-1BB(25G7)/FAP(4B9) 4+1 (bispecific antibody, human IgG1, lambda, L234A L235A)
heavy 1: not shown
heavy 2: not shown
light: SSELTQDPAVSVALGQTVRITCQGDSLRSYYASWYQQKPGQAPVLVIYGKNNRPSGIPDRFSGSSSGNTASLTITGAQAEDEADYYCNSLDRRGMWVFGGGTKLTVLGQPKAAPSVTLFPPSSEELQANKATLVCLISDFYPGAVTVAWKADSSPVKAGVETTTPSKQSNNKYAASSYLSLTPEQWKSHRSYSCQVTHEGSTVEKTVAPTECS
EC50 of NFκB/luciferase activation, 4-1BB reporter HeLa with NIH/3T3-huFAP clone 19 (human 4-1BB on cells [8]): 0.04 nM | EC50 of NFκB/luciferase activation, 4-1BB reporter HeLa with WM-266-4 (human 4-1BB on cells [8]): 0.2 nM

B7: 11D5/FAP P329GLALA IgG1 2+2 (bispecific antibody)
heavy: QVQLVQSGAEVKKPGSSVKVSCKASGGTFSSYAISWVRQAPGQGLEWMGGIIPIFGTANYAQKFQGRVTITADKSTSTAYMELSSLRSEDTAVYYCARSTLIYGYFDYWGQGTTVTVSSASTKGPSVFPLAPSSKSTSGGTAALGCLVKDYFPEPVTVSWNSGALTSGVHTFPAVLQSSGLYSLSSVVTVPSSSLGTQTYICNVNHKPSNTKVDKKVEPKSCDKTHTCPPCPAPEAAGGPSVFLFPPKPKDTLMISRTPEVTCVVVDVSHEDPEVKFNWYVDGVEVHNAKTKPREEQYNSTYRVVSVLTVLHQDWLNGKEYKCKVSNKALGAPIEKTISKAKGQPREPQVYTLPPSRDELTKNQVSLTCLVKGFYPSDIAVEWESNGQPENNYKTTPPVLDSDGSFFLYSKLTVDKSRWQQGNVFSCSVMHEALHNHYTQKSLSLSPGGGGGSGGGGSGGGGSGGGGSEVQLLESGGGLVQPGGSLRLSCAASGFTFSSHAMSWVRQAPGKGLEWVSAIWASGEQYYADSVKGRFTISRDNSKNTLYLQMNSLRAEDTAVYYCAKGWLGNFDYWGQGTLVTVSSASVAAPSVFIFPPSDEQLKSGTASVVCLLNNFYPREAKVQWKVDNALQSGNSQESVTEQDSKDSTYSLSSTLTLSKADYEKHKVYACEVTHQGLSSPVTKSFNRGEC
light 1: not shown
light 2: EIVLTQSPGTLSLSPGERATLSCRASQSVSRSYLAWYQQKPGQAPRLLIIGASTRATGIPDRFSGSGSGTDFTLTISRLEPEDFAVYYCQQGQVIPPTFGQGTKVEIKSSASTKGPSVFPLAPSSKSTSGGTAALGCLVKDYFPEPVTVSWNSGALTSGVHTFPAVLQSSGLYSLSSVVTVPSSSLGTQTYICNVNHKPSNTKVDKKVEPKSCD
EC50 of NFκB/luciferase activation, 4-1BB reporter HeLa with NIH/3T3-huFAP clone 19 (human 4-1BB on cells [8]): 0.05 nM

B8: 1G4/FAP P329GLALA IgG1 2+2 (bispecific antibody)
heavy: not shown
light 1: not shown
light 2: EIVLTQSPGTLSLSPGERATLSCRASQSVSRSYLAWYQQKPGQAPRLLIIGASTRATGIPDRFSGSGSGTDFTLTISRLEPEDFAVYYCQQGQVIPPTFGQGTKVEIKSSASTKGPSVFPLAPSSKSTSGGTAALGCLVKDYFPEPVTVSWNSGALTSGVHTFPAVLQSSGLYSLSSVVTVPSSSLGTQTYICNVNHKPSNTKVDKKVEPKSCD
notes: also called 1G4 FAP 2+2
EC50 (human OX40 on cells): 9.37 nM

B9: 49B4/FAP P329GLALA IgG1 2+2 (bispecific antibody)
heavy: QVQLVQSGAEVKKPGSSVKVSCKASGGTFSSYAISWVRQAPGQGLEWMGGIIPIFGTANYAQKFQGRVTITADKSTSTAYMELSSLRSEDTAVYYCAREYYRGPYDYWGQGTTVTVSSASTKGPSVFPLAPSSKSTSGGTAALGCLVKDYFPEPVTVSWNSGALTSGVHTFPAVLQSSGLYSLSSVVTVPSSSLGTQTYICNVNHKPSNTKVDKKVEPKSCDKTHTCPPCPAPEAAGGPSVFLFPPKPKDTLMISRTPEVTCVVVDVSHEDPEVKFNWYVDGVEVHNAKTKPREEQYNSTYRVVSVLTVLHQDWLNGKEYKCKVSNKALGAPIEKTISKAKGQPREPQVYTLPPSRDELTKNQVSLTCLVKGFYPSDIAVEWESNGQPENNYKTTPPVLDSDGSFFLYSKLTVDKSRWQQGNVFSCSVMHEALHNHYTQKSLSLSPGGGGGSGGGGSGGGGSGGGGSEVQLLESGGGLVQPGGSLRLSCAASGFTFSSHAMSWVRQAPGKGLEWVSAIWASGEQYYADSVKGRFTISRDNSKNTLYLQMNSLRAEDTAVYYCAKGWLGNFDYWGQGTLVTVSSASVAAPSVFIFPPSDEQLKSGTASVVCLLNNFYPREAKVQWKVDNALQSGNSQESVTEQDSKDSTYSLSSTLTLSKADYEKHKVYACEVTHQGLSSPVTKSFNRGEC
light 1: DIQMTQSPSTLSASVGDRVTITCRASQSISSWLAWYQQKPGKAPKLLIYDASSLESGVPSRFSGSGSGTEFTLTISSLQPDDFATYYCQQYSSQPYTFGQGTKVEIKRTVAAPSVFIFPPSDEQLKSGTASVVCLLNNFYPREAKVQWKVDNALQSGNSQESVTEQDSKDSTYSLSSTLTLSKADYEKHKVYACEVTHQGLSSPVTKSFNRGEC
light 2: EIVLTQSPGTLSLSPGERATLSCRASQSVSRSYLAWYQQKPGQAPRLLIIGASTRATGIPDRFSGSGSGTDFTLTISRLEPEDFAVYYCQQGQVIPPTFGQGTKVEIKSSASTKGPSVFPLAPSSKSTSGGTAALGCLVKDYFPEPVTVSWNSGALTSGVHTFPAVLQSSGLYSLSSVVTVPSSSLGTQTYICNVNHKPSNTKVDKKVEPKSCD
notes: also called 2+2 (49B4/28H1); bispecific bivalent 2+2 construct 49B4
EC50 [9]: 1.31 nM

B10: (GITR-DP47) [8A06] 4+1 construct with charged residues (bispecific antibody, V domains shown)
VH: QVQLVQSGAEVKKPGSSVKVSCKASGGTFSSYAISWVRQAPGQGLEWMGGIIPIFGTANYAQKFQGRVTITADKSTSTAYMELSSLRSEDTAVYYCARGYYAIDYWGQGTTVTVSS
VL: SSELTQDPAVSVALGQTVRITCQGDSLRSYYASWYQQKPGQAPVLVIYGKNNRPSGIPDRFSGSSSGNTASLTITGAQAEDEADYYCNSPQTSGSAVFGGGTKLTVL
EC50 [10]: 1.92 nM

B11: (GITR-FAP) [8A06] 4+2 construct with charged residues (bispecific antibody, V domains shown)
VH 1: QVQLVQSGAEVKKPGSSVKVSCKASGGTFSSYAISWVRQAPGQGLEWMGGIIPIFGTANYAQKFQGRVTITADKSTSTAYMELSSLRSEDTAVYYCARGYYAIDYWGQGTTVTVSS
VL 1: SSELTQDPAVSVALGQTVRITCQGDSLRSYYASWYQQKPGQAPVLVIYGKNNRPSGIPDRFSGSSSGNTASLTITGAQAEDEADYYCNSPQTSGSAVFGGGTKLTVL
VH 2: EVQLLESGGGLVQPGGSLRLSCAASGFTFSSHAMSWVRQAPGKGLEWVSAIWASGEQYYADSVKGRFTISRDNSKNTLYLQMNSLRAEDTAVYYCAKGWLGNFDYWGQGTLVTVSS
VL 2: EIVLTQSPGTLSLSPGERATLSCRASQSVSRSYLAWYQQKPGQAPRLLIIGASTRATGIPDRFSGSGSGTDFTLTISRLEPEDFAVYYCQQGQVIPPTFGQGTKVEIK
notes: human IgG1 P329G LALA; also called 4+2 CR
EC50 [10]: 2.06 nM
